In patent US8158376B2, “Bisubstrate fluorescent probe binding to protein kinases” (University of Tartu, priority 2006, dated 2012):
Like-named read-outs stand apart in the source and are kept apart here.

Experiments:
Assay in all cases: Kinase selectivity panel
Type in all cases: biochemical
MST2 = biological target: T1, MST2 (Homo sapiens, UniProt Q13188); conditions: read-out: residual activity (%) MST2
T1 sequence (Q13188 1-491): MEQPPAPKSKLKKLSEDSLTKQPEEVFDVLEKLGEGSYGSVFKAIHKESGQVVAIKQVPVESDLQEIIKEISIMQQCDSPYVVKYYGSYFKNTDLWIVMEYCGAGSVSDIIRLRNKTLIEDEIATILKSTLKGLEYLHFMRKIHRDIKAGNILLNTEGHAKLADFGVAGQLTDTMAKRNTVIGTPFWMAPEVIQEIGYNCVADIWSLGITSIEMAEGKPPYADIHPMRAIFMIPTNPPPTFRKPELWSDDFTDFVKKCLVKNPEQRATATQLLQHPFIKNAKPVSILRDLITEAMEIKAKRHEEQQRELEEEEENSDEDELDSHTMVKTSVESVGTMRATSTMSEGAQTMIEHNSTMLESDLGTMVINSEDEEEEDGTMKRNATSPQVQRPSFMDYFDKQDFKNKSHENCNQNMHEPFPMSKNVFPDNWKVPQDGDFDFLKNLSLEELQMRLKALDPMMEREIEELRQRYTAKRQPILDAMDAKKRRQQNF
Experimental: (§1) The panel of kinases included all 52 kinases available for testing.
(§2) The assay of protein kinases was performed at 30° C. as described previously [Davies et al., Biochem. J. 351 (2000) 95; Murray et al., Biochem. J. 384 (2004) 477].

MAPKAP-K1a/rsk-1 = MAPKAP-K1a/rsk-1 (Homo sapiens, UniProt Q15418); conditions: inhibitor 1 μM, ATP 50 μM
Experimental: as §1, §2

PKD1 = biological target: T2, PKD1 (Homo sapiens, UniProt Q15139); conditions: for remaining activity at 1 µM: read-out: residual activity (%) PKD1
T2 sequence (Q15139 1-912): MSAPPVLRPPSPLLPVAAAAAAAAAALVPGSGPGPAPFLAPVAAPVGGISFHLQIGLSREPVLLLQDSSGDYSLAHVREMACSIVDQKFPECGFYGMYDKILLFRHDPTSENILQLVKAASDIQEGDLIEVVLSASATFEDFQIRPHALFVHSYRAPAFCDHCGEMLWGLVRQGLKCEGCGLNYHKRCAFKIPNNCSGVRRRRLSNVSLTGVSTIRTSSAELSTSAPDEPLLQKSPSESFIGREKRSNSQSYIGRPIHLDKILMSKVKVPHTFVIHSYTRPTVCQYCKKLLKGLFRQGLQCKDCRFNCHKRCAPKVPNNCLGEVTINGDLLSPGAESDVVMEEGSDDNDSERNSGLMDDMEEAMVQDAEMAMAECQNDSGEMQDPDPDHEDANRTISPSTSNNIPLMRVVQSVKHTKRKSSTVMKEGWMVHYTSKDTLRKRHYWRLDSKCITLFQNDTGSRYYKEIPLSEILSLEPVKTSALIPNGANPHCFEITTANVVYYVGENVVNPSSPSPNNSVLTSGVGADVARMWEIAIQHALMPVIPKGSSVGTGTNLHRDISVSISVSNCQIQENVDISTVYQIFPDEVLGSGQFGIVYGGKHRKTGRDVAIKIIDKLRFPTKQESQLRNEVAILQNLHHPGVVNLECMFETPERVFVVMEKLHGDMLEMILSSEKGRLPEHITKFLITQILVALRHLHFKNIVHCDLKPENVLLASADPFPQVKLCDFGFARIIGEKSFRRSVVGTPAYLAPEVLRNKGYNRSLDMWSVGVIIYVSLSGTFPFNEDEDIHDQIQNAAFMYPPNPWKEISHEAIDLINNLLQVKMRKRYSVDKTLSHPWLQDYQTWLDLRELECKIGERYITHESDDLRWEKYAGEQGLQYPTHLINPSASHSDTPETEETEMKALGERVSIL
Experimental: as §1, §2

CAMK-1 = CAMK-1 (Homo sapiens, UniProt Q14012); conditions: read-out: residual activity (%) CAMK-1
Experimental: as §1, §2

PLK1 = PLK1 (Homo sapiens, UniProt P53350); conditions: read-out: residual activity (%) PLK1
Experimental: as §1, §2

MARK3 = MARK3 (Homo sapiens, UniProt P27448); conditions: read-out: residual activity (%) MARK3
Experimental: as §1, §2

Lck = Lck (Homo sapiens, UniProt P06239); conditions: read-out: residual activity (%) Lck
Experimental: as §1, §2

CHK1 = biological target: T3, CHK1 (Homo sapiens, UniProt O14757); conditions: read-out: residual activity (%) CHK1
T3 sequence (O14757 1-476): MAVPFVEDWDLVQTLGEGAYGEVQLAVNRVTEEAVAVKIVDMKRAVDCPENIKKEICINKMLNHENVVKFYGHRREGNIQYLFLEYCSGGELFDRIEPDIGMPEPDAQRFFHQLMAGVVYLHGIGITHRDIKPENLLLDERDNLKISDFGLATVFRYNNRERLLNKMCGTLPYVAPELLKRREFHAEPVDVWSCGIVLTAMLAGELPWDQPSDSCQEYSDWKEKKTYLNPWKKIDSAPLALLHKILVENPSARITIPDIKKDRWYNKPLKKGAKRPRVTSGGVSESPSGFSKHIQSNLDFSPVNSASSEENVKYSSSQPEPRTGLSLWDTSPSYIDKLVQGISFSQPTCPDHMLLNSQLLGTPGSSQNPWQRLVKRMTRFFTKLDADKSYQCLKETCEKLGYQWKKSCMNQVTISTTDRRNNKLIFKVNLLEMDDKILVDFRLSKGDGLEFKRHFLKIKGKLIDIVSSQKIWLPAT
Experimental: as §1, §2

CHK2 = CHK2 (Homo sapiens, UniProt O96017); conditions: read-out: residual activity (%) CHK2
Experimental: as §1, §2

MNK2 = MNK2 (Homo sapiens, UniProt Q9HBH9); conditions: read-out: residual activity (%) MNK2
Experimental: as §1, §2

DYRK1a = DYRK1a (Homo sapiens, UniProt Q13627); conditions: read-out: residual activity (%) DYRK1a
Experimental: as §1, §2

Sequence of Lck (P06239 whole entry, species assumed): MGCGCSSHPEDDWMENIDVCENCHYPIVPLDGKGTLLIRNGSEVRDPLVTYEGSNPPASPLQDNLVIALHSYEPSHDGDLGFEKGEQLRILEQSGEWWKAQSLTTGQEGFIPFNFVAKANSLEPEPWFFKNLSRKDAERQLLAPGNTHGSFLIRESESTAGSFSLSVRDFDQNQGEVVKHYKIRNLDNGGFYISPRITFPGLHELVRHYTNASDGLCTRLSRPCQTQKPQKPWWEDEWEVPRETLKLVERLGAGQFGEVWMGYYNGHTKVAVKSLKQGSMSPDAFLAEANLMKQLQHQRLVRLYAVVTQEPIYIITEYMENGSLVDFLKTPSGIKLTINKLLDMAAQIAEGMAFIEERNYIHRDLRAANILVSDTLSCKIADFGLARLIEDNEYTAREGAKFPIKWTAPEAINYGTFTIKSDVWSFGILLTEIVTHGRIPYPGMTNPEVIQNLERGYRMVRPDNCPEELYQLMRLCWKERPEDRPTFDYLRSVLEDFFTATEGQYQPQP
Sequence of CHK2 (O96017 whole entry, species assumed): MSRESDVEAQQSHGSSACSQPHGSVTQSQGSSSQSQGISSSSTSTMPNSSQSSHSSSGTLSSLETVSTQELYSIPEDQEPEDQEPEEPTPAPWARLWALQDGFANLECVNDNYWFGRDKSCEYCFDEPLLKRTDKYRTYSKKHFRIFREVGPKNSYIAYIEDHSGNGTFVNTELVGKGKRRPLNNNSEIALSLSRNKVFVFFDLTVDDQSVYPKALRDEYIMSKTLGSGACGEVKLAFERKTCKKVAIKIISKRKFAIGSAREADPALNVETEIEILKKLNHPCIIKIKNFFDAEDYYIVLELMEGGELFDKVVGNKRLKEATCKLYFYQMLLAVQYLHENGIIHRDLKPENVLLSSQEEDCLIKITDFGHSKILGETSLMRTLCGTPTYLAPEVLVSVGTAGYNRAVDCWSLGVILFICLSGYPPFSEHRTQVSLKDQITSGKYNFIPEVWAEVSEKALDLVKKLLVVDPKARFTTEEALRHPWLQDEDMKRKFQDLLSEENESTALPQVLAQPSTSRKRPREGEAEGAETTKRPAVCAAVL
Sequence of MARK3 (P27448 whole entry, species assumed): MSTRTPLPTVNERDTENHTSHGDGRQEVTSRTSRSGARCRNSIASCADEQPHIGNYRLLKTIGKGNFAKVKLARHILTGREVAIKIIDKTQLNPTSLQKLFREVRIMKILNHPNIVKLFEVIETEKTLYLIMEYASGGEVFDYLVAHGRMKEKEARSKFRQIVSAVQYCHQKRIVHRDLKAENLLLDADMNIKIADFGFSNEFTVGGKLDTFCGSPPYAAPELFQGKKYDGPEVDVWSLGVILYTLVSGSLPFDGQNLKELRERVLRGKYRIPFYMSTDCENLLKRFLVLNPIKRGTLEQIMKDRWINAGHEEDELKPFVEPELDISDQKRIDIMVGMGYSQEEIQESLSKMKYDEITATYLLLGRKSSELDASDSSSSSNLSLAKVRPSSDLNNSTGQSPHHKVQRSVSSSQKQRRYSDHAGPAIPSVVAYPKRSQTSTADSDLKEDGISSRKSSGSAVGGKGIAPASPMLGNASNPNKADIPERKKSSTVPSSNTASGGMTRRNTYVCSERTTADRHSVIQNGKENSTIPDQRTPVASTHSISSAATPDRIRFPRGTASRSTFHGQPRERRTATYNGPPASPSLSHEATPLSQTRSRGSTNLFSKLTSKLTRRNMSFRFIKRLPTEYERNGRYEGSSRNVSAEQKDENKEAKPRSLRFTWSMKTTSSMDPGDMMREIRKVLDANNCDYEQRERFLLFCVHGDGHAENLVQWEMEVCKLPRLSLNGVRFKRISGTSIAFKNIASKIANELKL
Sequence of MAPKAP-K1a/rsk-1 (Q15418 whole entry): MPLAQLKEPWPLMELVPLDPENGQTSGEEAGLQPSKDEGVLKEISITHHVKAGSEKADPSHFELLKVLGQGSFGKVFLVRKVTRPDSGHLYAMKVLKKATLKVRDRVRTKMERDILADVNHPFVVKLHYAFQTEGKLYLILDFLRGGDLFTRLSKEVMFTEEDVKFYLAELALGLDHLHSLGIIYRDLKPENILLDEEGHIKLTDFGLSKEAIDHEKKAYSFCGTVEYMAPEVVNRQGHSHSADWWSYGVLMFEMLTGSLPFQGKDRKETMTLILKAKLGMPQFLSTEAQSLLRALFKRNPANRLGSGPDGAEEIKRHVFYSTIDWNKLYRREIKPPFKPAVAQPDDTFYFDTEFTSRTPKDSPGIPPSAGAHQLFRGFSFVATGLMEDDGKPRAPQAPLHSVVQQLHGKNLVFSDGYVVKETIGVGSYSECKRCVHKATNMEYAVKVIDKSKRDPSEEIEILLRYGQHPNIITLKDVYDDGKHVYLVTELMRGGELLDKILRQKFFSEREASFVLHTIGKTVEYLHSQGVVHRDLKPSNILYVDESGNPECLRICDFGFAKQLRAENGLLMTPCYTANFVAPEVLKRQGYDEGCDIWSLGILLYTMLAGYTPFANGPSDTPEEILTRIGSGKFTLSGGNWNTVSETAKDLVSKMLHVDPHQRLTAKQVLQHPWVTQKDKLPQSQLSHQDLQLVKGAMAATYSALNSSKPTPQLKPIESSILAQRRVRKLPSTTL
Sequence of MNK2 (Q9HBH9 whole entry, species assumed): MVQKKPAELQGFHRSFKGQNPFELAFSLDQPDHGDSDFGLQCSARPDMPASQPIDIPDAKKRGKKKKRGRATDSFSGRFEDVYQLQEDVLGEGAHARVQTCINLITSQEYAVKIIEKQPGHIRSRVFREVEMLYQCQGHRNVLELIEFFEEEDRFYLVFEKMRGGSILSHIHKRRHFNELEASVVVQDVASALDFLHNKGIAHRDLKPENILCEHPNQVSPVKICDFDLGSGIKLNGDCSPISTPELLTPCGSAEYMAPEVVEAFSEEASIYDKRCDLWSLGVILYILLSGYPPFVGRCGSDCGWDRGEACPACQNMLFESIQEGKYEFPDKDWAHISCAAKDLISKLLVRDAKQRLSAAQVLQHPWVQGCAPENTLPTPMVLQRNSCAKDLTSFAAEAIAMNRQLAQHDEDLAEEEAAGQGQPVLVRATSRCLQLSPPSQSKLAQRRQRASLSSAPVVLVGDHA
Sequence of PLK1 (P53350 whole entry, species assumed): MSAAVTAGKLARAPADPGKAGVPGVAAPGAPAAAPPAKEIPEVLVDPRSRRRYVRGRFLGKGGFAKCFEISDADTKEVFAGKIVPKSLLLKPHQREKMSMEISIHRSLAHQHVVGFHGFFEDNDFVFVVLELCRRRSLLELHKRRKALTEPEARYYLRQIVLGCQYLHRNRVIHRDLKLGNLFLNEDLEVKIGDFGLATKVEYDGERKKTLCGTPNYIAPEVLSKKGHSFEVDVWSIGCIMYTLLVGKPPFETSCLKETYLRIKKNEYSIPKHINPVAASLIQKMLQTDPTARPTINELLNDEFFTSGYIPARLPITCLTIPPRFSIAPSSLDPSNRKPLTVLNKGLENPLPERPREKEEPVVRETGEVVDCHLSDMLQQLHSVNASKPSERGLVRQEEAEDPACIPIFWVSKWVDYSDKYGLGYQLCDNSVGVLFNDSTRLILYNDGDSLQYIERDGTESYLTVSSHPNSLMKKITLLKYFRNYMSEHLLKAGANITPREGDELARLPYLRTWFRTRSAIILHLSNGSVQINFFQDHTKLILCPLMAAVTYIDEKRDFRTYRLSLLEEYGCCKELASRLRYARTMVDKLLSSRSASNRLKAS

`N=C(N)NCCC[C@@H](NC(=O)[C@@H](CCCNC(=N)N)NC(=O)[C@@H](CCCNC(=N)N)NC(=O)[C@@H](CCCNC(=N)N)NC(=O)[C@@H](CCCNC(=N)N)NC(=O)[C@@H](CCCNC(=N)N)NC(=O)CCCCCNC(=O)[C@H]1O[C@@H](n2cnc3c(N)ncnc32)[C@H](O)[C@@H]1O)C(N)=O` [Compound 5, AdcAhx(D-Arg)6-NH2] was tested. Which remaining activity at 1 µM (MST2) did it give?
Its remaining activity at 1 µM is 77%.

And the “residual activity (%) MAPKAP-K1a/rsk-1” value (MAPKAP-K1a/rsk-1)?
Its value is 28 (±7) %.

And the remaining activity at 1 µM (PKD1)?
The remaining activity at 1 µM was 54%.

What about the remaining activity at 1 µM (CAMK-1) of the same compound?
The remaining activity at 1 µM was 15%.

And the remaining activity at 1 µM (PLK1)?
Its remaining activity at 1 µM is 81%.

And the remaining activity at 1 µM (MARK3)?
Its remaining activity at 1 µM is 40%.

And the remaining activity at 1 µM (Lck)?
The remaining activity at 1 µM was 70%.

What about the remaining activity at 1 µM (CHK1) of the same compound?
The remaining activity at 1 µM was 16%.

What about the remaining activity at 1 µM (CHK2) of the same compound?
The remaining activity at 1 µM was 14%.

What about the remaining activity at 1 µM (MNK2) of the same compound?
Its remaining activity at 1 µM is 99%.

What about the remaining activity at 1 µM (DYRK1a) of the same compound?
The remaining activity at 1 µM was 72%.

With `N=C(N)NCCC[C@@H](NC(=O)[C@@H](CCCNC(=N)N)NC(=O)[C@@H](CCCNC(=N)N)NC(=O)[C@@H](CCCNC(=N)N)NC(=O)[C@@H](CCCNC(=N)N)NC(=O)[C@@H](CCCNC(=N)N)NC(=O)CCCCCNCCNS(=O)(=O)c1cccc2cnccc12)C(N)=O` [Compound 26, H9-Hex(D-Arg)6-NH2] as the compound, how does the remaining activity at 1 µM (MST2; inhibitor 1 μM, ATP 20 μM) read?
The remaining activity at 1 µM was 24%.

And the remaining activity at 1 µM (MAPKAP-K1a/rsk-1; read-out: residual activity (%) MAPKAP-K1a/rsk-1)?
Its remaining activity at 1 µM is 0%.

What about the “residual activity (%) PKD1” value (PKD1; inhibitor 1 μM, ATP 50 μM) of the same compound?
The value was 9 (±1) %.

And the remaining activity at 1 µM (PKD1; inhibitor 1 μM, ATP 50 μM)?
The remaining activity at 1 µM was < 10%.

And the remaining activity at 1 µM (CAMK-1; inhibitor 1 μM, ATP 50 μM)?
Its remaining activity at 1 µM is < 10%.

And the remaining activity at 1 µM (PLK1; inhibitor 1 μM, ATP 5 μM)?
Its remaining activity at 1 µM is 76%.

And the remaining activity at 1 µM (MARK3; inhibitor 1 μM, ATP 5 μM)?
The remaining activity at 1 µM was 53%.

And the remaining activity at 1 µM (Lck; inhibitor 1 μM, ATP 50 μM)?
The remaining activity at 1 µM was 88%.

And the remaining activity at 1 µM (CHK1; inhibitor 1 μM, ATP 20 μM)?
Its remaining activity at 1 µM is 31%.

What about the remaining activity at 1 µM (CHK2; inhibitor 1 μM, ATP 20 μM) of the same compound?
Its remaining activity at 1 µM is 22%.

What about the remaining activity at 1 µM (MNK2; inhibitor 1 μM, ATP 50 μM) of the same compound?
The remaining activity at 1 µM was 31%.

What about the remaining activity at 1 µM (DYRK1a; inhibitor 1 μM, ATP 50 μM) of the same compound?
The remaining activity at 1 µM was 69%.
